{
  "source": "patent US20220259593A1",
  "about": "“CONTROL OF MAMMALIAN GENE DOSAGE USING CRISPR” (The Regents of the University of California, priority 2019, published 2022)",
  "molecules": {"B1": {"name": "cr044 (nucleic acid)", "guide": "GTGTAAGTGCTAAGCTGGAAACAGCATAGCAAGTTTAAATAAGGCTAGTCCGTTATCAACTTGAAAAAGTGGCACCGAGTCGGTGCT", "modifications": "listed as DNA, chemistry not fully specified"}, "B2": {"name": "cr174 (nucleic acid)", "guide": "B1 guide with G3T, T8A, G29C, T49G, G79T", "modifications": "listed as DNA, chemistry not fully specified"}, "B3": {"name": "cr137 (nucleic acid)", "guide": "B1 guide with G3T, T8A, A42G, G52T, A64C", "modifications": "listed as DNA, chemistry not fully specified"}, "B4": {"name": "cr092 (nucleic acid)", "guide": "B1 guide with A6G, T8A", "modifications": "listed as DNA, chemistry not fully specified"}, "B5": {"name": "cr706 (nucleic acid)", "guide": "B1 guide with G3T, T8A, T34G, C76G, G82C", "modifications": "listed as DNA, chemistry not fully specified"}, "B6": {"name": "cr463 (nucleic acid)", "guide": "B1 guide with G3T, T8A, G43C, C51G, A59C, T70G, G77T, C81A", "modifications": "listed as DNA, chemistry not fully specified"}, "B7": {"name": "cr067 (nucleic acid)", "guide": "B1 guide with G1C, G3T, T4G, T8A", "modifications": "listed as DNA, chemistry not fully specified"}, "B8": {"name": "cr778 (nucleic acid)", "guide": "B1 guide with G3T, T8A, C51G", "modifications": "listed as DNA, chemistry not fully specified"}, "B9": {"name": "cr415 (nucleic acid)", "guide": "B1 guide with G3T, T8A, G52C, A67T", "modifications": "listed as DNA, chemistry not fully specified"}, "B10": {"name": "cr518 (nucleic acid)", "guide": "B1 guide with G3T, T8A, G33T, A41G", "modifications": "listed as DNA, chemistry not fully specified"}, "B11": {"name": "cr052 (nucleic acid)", "guide": "B1 guide with G1A, T8A", "modifications": "listed as DNA, chemistry not fully specified"}, "B12": {"name": "cr587 (nucleic acid)", "guide": "B1 guide with G3T, T8A, G44C", "modifications": "listed as DNA, chemistry not fully specified"}, "B13": {"name": "cr187 (nucleic acid)", "guide": "B1 guide with G3T, T8A, T34G, G77A, C81T", "modifications": "listed as DNA, chemistry not fully specified"}, "B14": {"name": "cr160 (nucleic acid)", "guide": "B1 guide with G3T, T8A, G33T, T34C", "modifications": "listed as DNA, chemistry not fully specified"}, "B15": {"name": "cr862 (nucleic acid)", "guide": "B1 guide with G3T, T8A, G29T, A32C, G33C", "modifications": "listed as DNA, chemistry not fully specified"}, "B16": {"name": "cr883 (nucleic acid)", "guide": "B1 guide with G3T, T8A, A42G, C51G", "modifications": "listed as DNA, chemistry not fully specified"}, "B17": {"name": "cr339 (nucleic acid)", "guide": "B1 guide with G3T, T8A, G43C, G44C, C50G, C51G", "modifications": "listed as DNA, chemistry not fully specified"}, "B18": {"name": "cr648 (nucleic acid)", "guide": "B1 guide with G3T, T8A, G33C, G44T, C50A", "modifications": "listed as DNA, chemistry not fully specified"}, "B19": {"name": "cr130 (nucleic acid)", "guide": "B1 guide with G3T, T8A, A32T, G33T", "modifications": "listed as DNA, chemistry not fully specified"}, "B20": {"name": "cr499 (nucleic acid)", "guide": "B1 guide with G3T, T8A, G33C, T53A, T80G", "modifications": "listed as DNA, chemistry not fully specified"}, "B21": {"name": "cr860 (nucleic acid)", "guide": "B1 guide with G3T, T8A, T34C, G43A, C51T", "modifications": "listed as DNA, chemistry not fully specified"}, "B22": {"name": "cr247 (nucleic acid)", "guide": "B1 guide with G3T, T8A, G33T, G71A", "modifications": "listed as DNA, chemistry not fully specified"}, "B23": {"name": "cr250 (nucleic acid)", "guide": "B1 guide with G3T, T8A, T49A, G71C, T80G", "modifications": "listed as DNA, chemistry not fully specified"}, "B24": {"name": "cr664 (nucleic acid)", "guide": "B1 guide with G3T, T8A, G33C, T34C", "modifications": "listed as DNA, chemistry not fully specified"}, "B25": {"name": "cr114 (nucleic acid)", "guide": "B1 guide with G3T, T8A, G43T, C45T, G48A, C51A, A74C, T84G", "modifications": "listed as DNA, chemistry not fully specified"}, "B26": {"name": "cr512 (nucleic acid)", "guide": "B1 guide with G3T, T8A, T34G, G44C, C50G", "modifications": "listed as DNA, chemistry not fully specified"}, "B27": {"name": "cr376 (nucleic acid)", "guide": "B1 guide with G3T, T8A, G33C, C76G, G82C", "modifications": "listed as DNA, chemistry not fully specified"}, "B28": {"name": "cr967 (nucleic acid)", "guide": "B1 guide with G3T, T8A, G43C, C51G, C73A, G77A, C81T, G85T", "modifications": "listed as DNA, chemistry not fully specified"}, "B29": {"name": "cr328 (nucleic acid)", "guide": "B1 guide with G3T, T8A, G33C, A74C, T84G", "modifications": "listed as DNA, chemistry not fully specified"}, "B30": {"name": "cr281 (nucleic acid)", "guide": "B1 guide with G3T, T8A, A74T, C75G, C76G, G77C, G82C, T84A", "modifications": "listed as DNA, chemistry not fully specified"}, "B31": {"name": "cr807 (nucleic acid)", "guide": "B1 guide with G3T, T8A, A41T, A78T", "modifications": "listed as DNA, chemistry not fully specified"}, "B32": {"name": "cr949 (nucleic acid)", "guide": "B1 guide with G3T, T8A, T34G, A65T", "modifications": "listed as DNA, chemistry not fully specified"}, "B33": {"name": "cr993 (nucleic acid)", "guide": "B1 guide with G3T, T8A, G33C, A59T, T70A", "modifications": "listed as DNA, chemistry not fully specified"}, "B34": {"name": "cr081 (nucleic acid)", "guide": "B1 guide with G1A, G3T, T4A, T8A", "modifications": "listed as DNA, chemistry not fully specified"}, "B35": {"name": "cr436 (nucleic acid)", "guide": "B1 guide with G3T, T8A, T34G, A59T, T70A", "modifications": "listed as DNA, chemistry not fully specified"}, "B36": {"name": "cr295 (nucleic acid)", "guide": "B1 guide with G3T, T8A, T34G, C73G, G85C", "modifications": "listed as DNA, chemistry not fully specified"}, "B37": {"name": "cr795 (nucleic acid)", "guide": "B1 guide with G3T, T8A, G43T, C51A, G72T, A74T, T84A, C86A", "modifications": "listed as DNA, chemistry not fully specified"}, "B38": {"name": "cr524 (nucleic acid)", "guide": "B1 guide with G3T, T8A, A64T", "modifications": "listed as DNA, chemistry not fully specified"}, "B39": {"name": "cr455 (nucleic acid)", "guide": "B1 guide with G3T, T8A, C60T, T62G, A67C, G69A", "modifications": "listed as DNA, chemistry not fully specified"}, "B40": {"name": "cr352 (nucleic acid)", "guide": "B1 guide with G3T, T8A, A59C", "modifications": "listed as DNA, chemistry not fully specified"}, "B41": {"name": "cr054 (nucleic acid)", "guide": "B1 guide with G3T, G7C, T8C", "modifications": "listed as DNA, chemistry not fully specified"}},
  "note": "Substitutions are numbered along the chain they refer to.",
  "data": [
    {"test_system": "K562 CRISPRi cells", "experiment": "Constant region variant library pooled growth screen, K562", "format": "cell-based, human", "conditions": "sgRNA constant region variant; activity relative to unmodified constant region cr995; mean CRISPRi activity", "method_in_brief": "(§1)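 K562 CRISPRi, duplicate transductions; puromycin 1 d 0.75 μg/mL then 1 d 0.85 μg/mL; >2000× coverage in spinner flasks; harvests at 4-8 d growth. Activity = phenotype ÷ phenotype with unmodified constant region.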", "values": [
      {"molecule": "B1", "Mean relative activity": 0.01046},
      {"molecule": "B2", "Mean relative activity": 0.006669},
      {"molecule": "B3", "Mean relative activity": 0.008516},
      {"molecule": "B4", "Mean relative activity": 0.006875},
      {"molecule": "B5", "Mean relative activity": 0.006595},
      {"molecule": "B6", "Mean relative activity": 0.006799},
      {"molecule": "B7", "Mean relative activity": 0.01012},
      {"molecule": "B8", "Mean relative activity": 0.0072},
      {"molecule": "B9", "Mean relative activity": 0.007281},
      {"molecule": "B10", "Mean relative activity": 0.006889},
      {"molecule": "B11", "Mean relative activity": 0.009238},
      {"molecule": "B12", "Mean relative activity": 0.009805},
      {"molecule": "B13", "Mean relative activity": 0.00928},
      {"molecule": "B14", "Mean relative activity": 0.007879},
      {"molecule": "B15", "Mean relative activity": 0.007887},
      {"molecule": "B16", "Mean relative activity": 0.006975},
      {"molecule": "B17", "Mean relative activity": 0.00717},
      {"molecule": "B18", "Mean relative activity": 0.008305},
      {"molecule": "B19", "Mean relative activity": 0.009507},
      {"molecule": "B20", "Mean relative activity": 0.007257},
      {"molecule": "B21", "Mean relative activity": 0.01022},
      {"molecule": "B22", "Mean relative activity": 0.007159},
      {"molecule": "B23", "Mean relative activity": 0.01012},
      {"molecule": "B24", "Mean relative activity": 0.007435},
      {"molecule": "B25", "Mean relative activity": 0.008589},
      {"molecule": "B26", "Mean relative activity": 0.007414},
      {"molecule": "B27", "Mean relative activity": 0.006963},
      {"molecule": "B28", "Mean relative activity": 0.006446},
      {"molecule": "B29", "Mean relative activity": 0.009384},
      {"molecule": "B30", "Mean relative activity": 0.006802},
      {"molecule": "B31", "Mean relative activity": 0.00776},
      {"molecule": "B32", "Mean relative activity": 0.01022},
      {"molecule": "B33", "Mean relative activity": 0.00969},
      {"molecule": "B34", "Mean relative activity": 0.009207},
      {"molecule": "B35", "Mean relative activity": 0.008129},
      {"molecule": "B36", "Mean relative activity": 0.008268},
      {"molecule": "B37", "Mean relative activity": 0.009911}
    ]},
    {"test_system": "K562 CRISPRi cells", "experiment": "Constant region variant library pooled growth screen, K562", "format": "cell-based, human", "conditions": "sgRNA constant region variants; activity relative to the original, un-modified constant region cr995", "method_in_brief": "as §1", "values": [
      {"molecule": "B38", "Mean relative activity": 1.032},
      {"molecule": "B39", "Mean relative activity": 1.031},
      {"molecule": "B40", "Mean relative activity": 1.031},
      {"molecule": "B41", "Mean relative activity": 1.032}
    ]}
  ]
}
